Results on two molecules are retold here after article PMC7144941.

The target of data set [1] is catalytically inactive H97A mutant of mouse endonuclease G lacking the N-terminal mitochondrial localization sequence (mouse). Kind of data set: crystal structure.
Data set [2] deals with T1, i-mEndoG H97A (catalytically inactive mouse endonuclease G) (mouse, UniProt O08600 42-294, H138A).
T1 sequence: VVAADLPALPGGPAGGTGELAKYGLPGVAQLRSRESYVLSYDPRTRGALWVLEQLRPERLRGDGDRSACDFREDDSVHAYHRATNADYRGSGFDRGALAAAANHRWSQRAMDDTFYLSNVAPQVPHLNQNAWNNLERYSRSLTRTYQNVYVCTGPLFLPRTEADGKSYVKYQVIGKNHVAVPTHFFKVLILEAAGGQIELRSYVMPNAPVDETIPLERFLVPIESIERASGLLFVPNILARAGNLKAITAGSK
Description: X-ray crystallography.

One may read the stoichiometry N as a count of units in the complex or per binding partner. In turn, “catalytically inactive H97A mutant of mouse endonuclease G lacking the N-terminal mitochondrial localization sequence (enzyme)” yielded a stoichiometry N in data set [1] of 2.

B1: decanucleotide d(CCGGCGCCGG) (dsDNA)
DNA 1: CCGGCGCCGG
DNA 2: CCGGCGCCGG
B1: in data set [2], the binding result was “binds”.
